Experimental data published in US20240117049A1 (Hoffmann-La Roche, published 2024).

T1: human OX40 on cells (human, UniProt P43489 29-277)
T1 sequence: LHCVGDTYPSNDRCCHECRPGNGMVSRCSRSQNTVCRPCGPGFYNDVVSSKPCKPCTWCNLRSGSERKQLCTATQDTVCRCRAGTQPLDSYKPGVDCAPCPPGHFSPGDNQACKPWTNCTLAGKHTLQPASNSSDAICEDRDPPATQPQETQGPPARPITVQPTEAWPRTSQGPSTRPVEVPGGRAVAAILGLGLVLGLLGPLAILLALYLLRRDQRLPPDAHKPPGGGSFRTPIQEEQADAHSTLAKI


What was measured:
[1] = target: T2, biotinylated recombinant human FAP (human, UniProt Q12884 27-760, biotinylated); test: SPR (Biacore)
T2 construct: the Biacore paragraphs only say biotinylated (recombinant) human FAP; also called biotinylated human FAP; recombinant huFAP

[2] = target: T2, biotinylated recombinant human FAP; test: SPR (Biacore), biotinylated huFAP on CAP chip, Fab as analyte, 1:1 fit
Experimental: As running and dilution buffer, HBS-P+ (10 mM HEPES, 150 mM NaCl pH 7.4, 0.05% Surfactant P20) was used. A dilution series of anti-huFAP Fabs (3.7-300 nM, 1:3 dilution) was successively injected for 120s each, dissociation was monitored for 1800s at a flow rate of 30 μl/min (single cycle kinetics). The surface was regenerated by injecting 6 M guanidine-HCl, 0.25 M NaOH for 120s. Bulk refractive index differences were corrected by subtracting blank injections and by subtracting the response obtained from the control flow cell without captured human FAP. Curve fitting was performed using the 1:1 Langmuir binding model within the Biacore evaluation software.

human OX40 on cells [3] = target: T1, human OX40 on cells; test: cell-based or functional assay
human OX40 on cells [4] = target: T1, human OX40 on cells; test: cell-based or functional assay; remark: listed apart in the source

Binder | Kd [1] [nM] | T ½ [1] [min] | koff [1] [s⁻¹] | kon [1] [M⁻¹ s⁻¹] | Kd [2] [nM] | koff [2] [s⁻¹] | kon [2] [M⁻¹ s⁻¹] | EC50 of NFκB activation, HeLa_hOx40_NFkB_Luc1, w/ hu FAP+ fibroblasts (human OX40 on cells [3]) [nM] | EC50 of NFκB activation, HeLa_hOx40_NFkB_Luc1, w/o crosslinking (human OX40 on cells [3]) [nM] | AUC of CD25 upregulation compared to reference compound [%] (human OX40 on cells [4])
P1AE1690_Fab, humanized anti-FAP Fab VH1G2a/VL1G1a (Fab, V domains shown) VH: QVQLVQSGAEVKKPGASVKVSCKASGYTLTDYNMDWVRQAPGKSLEWIGDIYPNTGGTIYNQKFKGRVTMTIDKSTSTVYMELSSLRSEDTAVYYCTRFRGIHYAMDYWGQGTTVTVSS VL: EIVLTQSPATLSLSPGERATLSCRASESVDNYGLSFINWFQQKPGQAPRLLIYGTSNRGSGIPARFSGSGSGTDFTLTISSLEPEDFAVYFCQQSNEVPYTFGGGTKVEIK | 0.114 | 183 | 6.3e-05 | 551000 |  |  |  |  |  | 
P1AE1689_Fab, humanized anti-FAP Fab VH1G1a/VL1G1a (Fab, V domains shown, also called FAP antibody 1G1a; H212) VH: QVQLVQSGAEVKKPGASVKVSCKASGYTLTDYNMDWVRQAPGQGLEWIGDIYPNTGGTIYNQKFKGRVTMTIDTSTSTVYMELSSLRSEDTAVYYCTRFRGIHYAMDYWGQGTTVTVSS VL: EIVLTQSPATLSLSPGERATLSCRASESVDNYGLSFINWFQQKPGQAPRLLIYGTSNRGSGIPARFSGSGSGTDFTLTISSLEPEDFAVYFCQQSNEVPYTFGGGTKVEIK | 0.095 | 274 | 4.21e-05 | 443000 |  |  |  |  |  | 
P1AE1693_Fab, humanized anti-FAP Fab VH1G2a/VL1G2a (Fab, V domains shown) VH: QVQLVQSGAEVKKPGASVKVSCKASGYTLTDYNMDWVRQAPGKSLEWIGDIYPNTGGTIYNQKFKGRVTMTIDKSTSTVYMELSSLRSEDTAVYYCTRFRGIHYAMDYWGQGTTVTVSS VL: EIVLTQSPATLSLSPGERATLSCRASESVDNYGLSFINWFQQKPGQPPRLLIYGTSNRGSGIPARFSGSGSGTDFTLTISSLEPEDFAVYFCQQSNEVPYTFGGGTKVEIK | 0.135 | 161 | 7.18e-05 | 530000 |  |  |  |  |  | 
P1AD3690, untargeted tetravalent OX40 (49B4) antigen binding molecule (4+0) (antibody, human IgG1, kappa, L234A L235A) heavy: not shown light: DIQMTQSPSTLSASVGDRVTITCRASQSISSWLAWYQQKPGKAPKLLIYDASSLESGVPSRFSGSGSGTEFTLTISSLQPDDFATYYCQQYSSQPYTFGQGTKVEIKRTVAAPSVFIFPPSDEQLKSGTASVVCLLNNFYPREAKVQWKVDNALQSGNSQESVTEQDSKDSTYSLSSTLTLSKADYEKHKVYACEVTHQGLSSPVTKSFNRGEC |  |  |  |  |  |  |  | 0.18 | 0.23 | 13

Other lines, results leading:

Kd [1] [nM] | T ½ [1] [min] | koff [1] [s⁻¹] | kon [1] [M⁻¹ s⁻¹] | Kd [2] [nM] | koff [2] [s⁻¹] | kon [2] [M⁻¹ s⁻¹] | EC50 of NFκB activation, HeLa_hOx40_NFkB_Luc1, w/ hu FAP+ fibroblasts (human OX40 on cells [3]) [nM] | EC50 of NFκB activation, HeLa_hOx40_NFkB_Luc1, w/o crosslinking (human OX40 on cells [3]) [nM] | AUC of CD25 upregulation compared to reference compound [%] (human OX40 on cells [4]) | Binder
0.279 | 55 | 0.000208 | 747000 | 0.43 | 0.00078 | 1.82e+06 |  |  |  | 4B9_Fab (Fab, V domains shown, Fab; also called anti-FAP 4B9 Fab) VH: EVQLLESGGGLVQPGGSLRLSCAASGFTFSSYAMSWVRQAPGKGLEWVSAIIGSGASTYYADSVKGRFTISRDNSKNTLYLQMNSLRAEDTAVYYCAKGWFGGFNYWGQGTLVTVSS VL: EIVLTQSPGTLSLSPGERATLSCRASQSVTSSYLAWYQQKPGQAPRLLINVGSRRATGIPDRFSGSGSGTDFTLTISRLEPEDFAVYYCQQGIMLPPTFGQGTKVEIK
0.213 | 108 | 0.000107 | 502000 |  |  |  |  |  |  | P1AE1702_Fab, humanized anti-FAP Fab VH2G2a/VL2G2a (Fab, V domains shown) VH: EVQLLESGGGLVQPGGSLRLSCAASGYTLTDYNMDWVRQAPGKGLEWVGDIYPNTGGTIYNQKFKGRFTISIDKSKNTAYLQMNSLRAEDTAVYYCTRFRGIHYAMDYWGQGTTVTVSS VL: DIQMTQSPSSLSASVGDRVTITCRASESVDNYGLSFINWFQQKPGQPPKLLIYGTSNRGSGVPSRFSGSGSGTDFTLTISSLQPEDFAMYFCQQSNEVPYTFGGGTKVEIK
